Assay [1] has as its target T1, soluble human IL-6 receptor (human, UniProt P08887 20-357).
T1 construct: also called hsIL-6R
T1 sequence: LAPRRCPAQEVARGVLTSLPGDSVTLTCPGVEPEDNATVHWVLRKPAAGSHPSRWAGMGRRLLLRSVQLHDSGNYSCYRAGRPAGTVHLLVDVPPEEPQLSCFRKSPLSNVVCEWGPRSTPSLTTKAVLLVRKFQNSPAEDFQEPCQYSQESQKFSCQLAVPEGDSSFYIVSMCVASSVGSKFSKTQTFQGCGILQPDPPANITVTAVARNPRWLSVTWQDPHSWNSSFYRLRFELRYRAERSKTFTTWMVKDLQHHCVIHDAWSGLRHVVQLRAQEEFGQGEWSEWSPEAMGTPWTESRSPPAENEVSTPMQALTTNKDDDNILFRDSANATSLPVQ
In words: Biacore SPR, 3 uM CaCl2, pH 7.4, 37C, estimated.
Method: (§1) The kinetic analysis of the antigen-antibody reactions was conducted in solutions with 2 mM and 3 μM calcium ion concentrations, set as high and low calcium ion concentration conditions, respectively. The antibody of interest was captured on Sensor chip CM4 (GE Healthcare) on which an appropriate amount of protein A (Invitrogen) was immobilized by an amine coupling method. Two buffers [10 mM N-(2-acetamido)-2-aminoethanesulfonic acid (ACES), 150 mM NaCl, 0.05% (w/v) polysorbate 20 (Tween 20®), and 2 mM CaCl₂ (pH 7.4) or 10 mM ACES, 150 mM NaCl, 0. 05% (w/v) polysorbate 20 (Tween 20®), and 3 μmol/L CaCl₂ (pH 7.4)] were used as running buffers. These buffers were used for diluting human IL-6 receptor. All the measurements were conducted at 37° C.
(§2) Subsequently, the sensor chip was regenerated by injecting 10 mM glycine-HCl (pH 1.5) at a flow rate 30 μL/min for 30 seconds.

Assay [2] deals with T1, soluble human IL-6 receptor. In words: Biacore SPR, 3 uM CaCl2, pH 7.4, 37C, estimated from Req and Rmax.
Method: as §1, §2
Assay [3] addresses T2, human FcγRIa (human, UniProt P12314 16-292, limits assumed).
T2 construct: also called FcgRIa; hFcgRIa
The experiment in a line: SPR.
T2 sequence (P12314 16-292 limits assumed): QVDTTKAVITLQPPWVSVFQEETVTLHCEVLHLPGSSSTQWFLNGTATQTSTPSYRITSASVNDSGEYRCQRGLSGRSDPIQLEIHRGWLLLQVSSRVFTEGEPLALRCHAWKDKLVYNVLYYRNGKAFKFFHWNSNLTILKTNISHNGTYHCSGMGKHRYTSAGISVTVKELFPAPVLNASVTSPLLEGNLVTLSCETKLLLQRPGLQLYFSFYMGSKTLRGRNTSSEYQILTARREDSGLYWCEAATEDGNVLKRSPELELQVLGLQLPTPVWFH
Method: (§3) Next, interaction between these antibodies and FcγR was analyzed kinetically using the BIACORE™ T100 (GE Healthcare). The interaction was measured at a temperature of 25° C. using HBS-EP+ (GE Healthcare) for the running buffer. The Series S Sensor Chip CMS (GE Healthcare) was used after immobilizing Protein A by amine coupling. […] Antibody captured on the chip was washed by allowing 10 mM glycine-HCl (pH 1.5) to react following measurement. The chip regenerated in this manner was used repeatedly. The dissociation constant KD (mol/L) was calculated from the association rate constant ka (L/mol/s) and dissociation rate constant kd (l/s) as calculated by global-fitting the measurement results with a 1:1 Langmuir binding model using the BIACORE™ Evaluation Software.

In assay [4] the target is T3, human FcγRIIa(R) (human, UniProt P12318 36-217).
T3 construct: also called FcgRIIaR; hFcgRIIa(R)
T3 chain: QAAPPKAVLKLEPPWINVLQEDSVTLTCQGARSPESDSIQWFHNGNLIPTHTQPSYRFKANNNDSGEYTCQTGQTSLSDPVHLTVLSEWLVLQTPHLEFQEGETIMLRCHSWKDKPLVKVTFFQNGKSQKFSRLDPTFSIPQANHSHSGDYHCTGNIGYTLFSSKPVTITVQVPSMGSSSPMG
In words: SPR. A general note: Surface plasmon resonance follows binding to a sensor surface in real time, without labels.
Method: as §3

In assay [5] the target is T4, human FcγRIIa(H) (human, UniProt P12318 36-217).
T4 construct: also called FcgRIIaH; hFcgRIIa(H)
T4 sequence: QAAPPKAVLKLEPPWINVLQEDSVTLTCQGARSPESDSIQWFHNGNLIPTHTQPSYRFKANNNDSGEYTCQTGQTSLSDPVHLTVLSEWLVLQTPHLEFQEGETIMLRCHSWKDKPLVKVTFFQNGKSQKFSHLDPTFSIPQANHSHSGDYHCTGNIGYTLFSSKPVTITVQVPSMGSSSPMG
In words: SPR.
Method: as §3

Assay [6] addresses T5, human FcγRIIb (human, UniProt P31994 43-217, limits assumed).
T5 construct: also called FcgRIIb; hFcgRIIb
T5 sequence: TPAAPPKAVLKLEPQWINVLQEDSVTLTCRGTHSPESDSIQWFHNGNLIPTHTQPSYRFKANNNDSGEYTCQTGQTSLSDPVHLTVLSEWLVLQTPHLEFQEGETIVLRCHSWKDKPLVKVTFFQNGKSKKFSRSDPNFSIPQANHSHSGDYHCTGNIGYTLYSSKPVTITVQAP
In words: SPR.
Method: as §3

The target of assay [7] is T2, human FcγRIa. In words: SPR, antibody captured by Protein A, FcγR analyte, 1:1 Langmuir fit.
Method: as §3
Assay [8] addresses T3, human FcγRIIa(R). Described as above.
Method: as §3
Assay [9] has as its target T5, human FcγRIIb. Described as above.
Method: as §3
Assay [10] addresses T4, human FcγRIIa(H). In words: SPR, antibody captured by Protein A, FcγR analyte; * calculated with Equation 5.
Method: as §3
The target of assay [11] is T6, human FcγRIa (human, UniProt P12314 16-292, limits assumed).
T6 construct: also called CD64
In words: SPR (Biacore), antibody captured, FcγR as analyte.
T6 sequence (P12314 16-292 limits assumed): as the sequence (P12314 16-292 limits assumed) above

In the next assay the target is T7, human FcγRIIa type R (human, UniProt P12318 36-217).
T7 construct: also called FcγRIIaR; FcγRIIa(R)
T7 chain: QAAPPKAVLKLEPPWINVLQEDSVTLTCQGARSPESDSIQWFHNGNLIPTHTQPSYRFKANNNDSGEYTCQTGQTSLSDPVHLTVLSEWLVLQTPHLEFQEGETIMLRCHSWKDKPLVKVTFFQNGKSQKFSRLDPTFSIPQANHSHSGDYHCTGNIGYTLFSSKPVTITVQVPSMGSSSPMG
In words: SPR (Biacore), antibody captured, FcγR as analyte.

A further assay addresses T8, human FcγRIIa type H (human, UniProt P12318 36-217).
T8 construct: also called FcγRIIaH; FcγRIIa(H)
T8 sequence: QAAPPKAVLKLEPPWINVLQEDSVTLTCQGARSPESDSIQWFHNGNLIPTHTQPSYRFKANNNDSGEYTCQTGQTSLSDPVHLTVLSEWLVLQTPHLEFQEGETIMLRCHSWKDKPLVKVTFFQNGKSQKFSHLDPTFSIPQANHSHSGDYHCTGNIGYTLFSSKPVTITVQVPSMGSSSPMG
The experiment in a line: SPR (Biacore), antibody captured, FcγR as analyte.

Assay [12] has as its target T9, human FcγRIIb (human, UniProt P31994 43-217, limits assumed).
T9 construct: also called FcγIIB
T9 sequence: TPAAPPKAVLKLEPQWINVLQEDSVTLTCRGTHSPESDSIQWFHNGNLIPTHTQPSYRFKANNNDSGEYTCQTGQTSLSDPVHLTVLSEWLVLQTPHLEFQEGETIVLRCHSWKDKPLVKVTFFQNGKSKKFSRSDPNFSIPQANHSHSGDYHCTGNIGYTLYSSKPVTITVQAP
The experiment in a line: SPR (Biacore), antibody captured, FcγR as analyte.

Assay [13] concerns the target T9, human FcγRIIb. In words: SPR (Biacore); ratio against parent IL6R-F11/IL6R-L.
Assay [14] concerns the target T9, human FcγRIIb. The experiment in a line: SPR (Biacore); KD for FcγRIIaH divided by KD for FcγRIIb of the same antibody.
Assay [15] concerns the target T9, human FcγRIIb. In words: SPR (Biacore); KD for FcγRIIaR divided by KD for FcγRIIb of the same antibody.
Assay [16] has as its target T4, human FcγRIIa(H). In words: SPR, antibody captured by Protein A, FcγR analyte, 1:1 Langmuir fit.
Method: as §3
The target of assay [17] is T10, human FcγRIIb (human, UniProt P31994 43-217, limits assumed).
T10 construct: also called hFcgRIIb; FcγIIB
T10 sequence: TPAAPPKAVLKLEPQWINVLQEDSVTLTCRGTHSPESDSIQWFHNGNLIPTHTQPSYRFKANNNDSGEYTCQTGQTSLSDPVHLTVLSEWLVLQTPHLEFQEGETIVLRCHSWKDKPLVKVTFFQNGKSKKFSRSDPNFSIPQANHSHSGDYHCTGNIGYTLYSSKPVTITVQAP
In words: SPR, antibody captured on the chip, FcγR as analyte, HBS-EP+, 25 C; amount bound corrected for captured antibody.
Method: (§4) Interaction between each modified antibody and Fcγ receptor prepared in the manner described above was analyzed using the BIACORE™ T100 surface plasmon resonance system (GE Healthcare), BIACORE™ T200 surface plasmon resonance system (GE Healthcare), BIACORE™ A100 surface plasmon resonance system or BIACORE™ 4000 surface plasmon resonance system. HBS-EP+ (GE Healthcare) was used for the running buffer, and measurements were carried out at 25° C. The chips used were chips in which antigen peptides, Protein A (Thermo Scientific), Protein A/G (Thermo Scientific) or Protein L (ACTIGEN® protein (Alltech or BioVision) were immobilized on the Series S Sensor Chip CMS (GE Healthcare) or Series S Sensor Chip CM4 (GE Healthcare) by amine coupling, or chips in which preliminarily biotinylated antigen peptides were allowed to interact and then immobilized on the Series S Sensor Chip SA (certified) (GE Healthcare). The target antibodies were captured on these sensor chips, Fcγ receptor diluted with the running buffer was allowed to interact, followed by measurement of the amount of bound antibody. The amounts bound were compared between antibodies. However, since the amount of Fcγ receptor bound depends on the amount of captured antibody, the values used for comparison were first corrected by dividing the amount of Fcγ receptor bound by the captured amount of each antibody. Through reaction with 10 mM glycine-HCl at pH 1.5, the sensor chips were regenerated by washing off antibody captured on the sensor chips and used repeatedly.

In assay [18] the target is T11, human FcγRIa (human, UniProt P12314 16-292, limits assumed).
T11 construct: also called hFcgRIa; hFcgRI
The assay is described as above.
T11 sequence (P12314 16-292 limits assumed): as the sequence (P12314 16-292 limits assumed) above
Method: as §4

The target of assay [19] is T12, human FcγRIIa(R) (human, UniProt P12318 36-217).
T12 construct: also called hFcgRIIa(R); FcγRIIa type R
T12 chain: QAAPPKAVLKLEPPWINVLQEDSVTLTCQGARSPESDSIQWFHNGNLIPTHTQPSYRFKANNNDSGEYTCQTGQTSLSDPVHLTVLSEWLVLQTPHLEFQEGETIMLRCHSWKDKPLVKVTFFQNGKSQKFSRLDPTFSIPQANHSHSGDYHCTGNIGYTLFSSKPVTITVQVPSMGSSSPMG
The assay is described as above.
Method: as §4

Assay [20] addresses T13, human FcγRIIa(H) (human, UniProt P12318 36-217).
T13 construct: also called hFcgRIIa(H); FcγRIIa type H
T13 sequence: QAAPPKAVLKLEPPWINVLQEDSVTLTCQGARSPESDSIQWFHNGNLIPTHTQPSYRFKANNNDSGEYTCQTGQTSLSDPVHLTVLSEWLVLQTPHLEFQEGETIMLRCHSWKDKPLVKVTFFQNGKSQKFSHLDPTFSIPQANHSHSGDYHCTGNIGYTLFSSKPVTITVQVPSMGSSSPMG
The description is as above.
Method: as §4

B1: 6RL#9-IgG1 (antibody, V domains shown, not shown: a dimerising Fc or GST)
VH: QVQLVQSGAEVKKPGASVKVSCKASGYTFTSYYMHWVRQAPGQGLEWMGIINPSGGSTSYAQKFQGRVTMTRDTSTSTVYMELSSLRSEDTAVYYCARDDPGGGEYYFDYWGQGTLVTVSS
VL: QSVLTQPPSVSGAPGQRVTISCTGSRSNMGAGYDVHWYQLLPGAAPKLLISHNTHRPSGVPDRFSGSKSGASASLAITGLQAEDEADYYCQSHDSSLSAVVFGGGTKLTVLS
As for B1, the Kd in assay [1] is not below 31000 nM; in [2] it was approximately 31000 nM.

B2: FH4-IgG1 (antibody, V domains shown)
VH: QVQLVQSGAEVKKPGSSVKVSCKASGGTFSSYAISWVRQAPGQGLEWMGGIIPIFGTANYAQKFQGRVTITADESTSTAYMELSSLRSEDTAVYYCARERDYYDSSGYYDAFDIWGQGTMVTVSS
VL: ETTVTQSPSFLSASVGDRVTITCITTTDIDDDMNWFQQEPGKAPKLLISEGNILRPGVPSRFSSSGYGTDFTLTISKLQPEDFATYYCLQSDNLPFTFGQGTKLEIKR
Consider B2, for which the Kd was not below 34000 nM in [1] and approximately 34000 nM in [2].

B3: IL6R-G1d_v1/IL6R-L (antibody, human IgG1)
heavy: not shown
light: DIQMTQSPSSLSASVGDRVTITCRASQDISSYLNWYQQKPGKAPKLLIYYTSRLHSGVPSRFSGSGSGTDFTFTISSLQPEDIATYYCQQGNTLPYTFGQGTKVEIK
notes: P238D (EU numbering) in IL6R-G1d; also called IgG1-v1; copies: 2 + 2
B3: the “relative KD (KD of IgG1/KD of variant)” value was found to be 0.047 fold with human FcγRIa [3], 0.1 fold in the assay with human FcγRIIa(R) [4], 0.014 fold with human FcγRIIa(H) [5] and 4.8 fold with human FcγRIIb [6]. The Kd in the assay with human FcγRIa [7] was 7.3 nM; with human FcγRIIa(R) [8], 12000 nM; in the assay with human FcγRIIb [9], 1100 nM; with human FcγRIIa(H) [10] it was 56000 nM.

B4: IL6R-G1d_v2/IL6R-L (antibody, human IgG1)
heavy: not shown
light: DIQMTQSPSSLSASVGDRVTITCRASQDISSYLNWYQQKPGKAPKLLIYYTSRLHSGVPSRFSGSGSGTDFTFTISSLQPEDIATYYCQQGNTLPYTFGQGTKVEIK
notes: L328E (EU numbering) in IL6R-G1d; also called IgG1-v2; copies: 2 + 2
In the case of B4, the “relative KD (KD of IgG1/KD of variant)” value was found to be 0.74 fold with human FcγRIa [3], 0.41 fold in the assay with human FcγRIIa(R) [4], 0.064 fold in the assay with human FcγRIIa(H) [5] and 2.3 fold in the assay with human FcγRIIb [6]. Further, the Kd with human FcγRIa [7] is 0.46 nM; with human FcγRIIa(R) [8], 2900 nM; with human FcγRIIb [9], 2300 nM; with human FcγRIIa(H) [10], 12000 nM.

B5: IL6R-F11/IL6R-L (antibody, human IgG1)
heavy: not shown
light: DIQMTQSPSSLSASVGDRVTITCRASQDISSYLNWYQQKPGKAPKLLIYYTSRLHSGVPSRFSGSGSGTDFTFTISSLQPEDIATYYCQQGNTLPYTFGQGTKVEIK
notes: IL6R-G1d with M252Y/N434Y (EU numbering)
As for B5, the Kd with human FcγRIa [11] came out at 0.9 nM; in the assay with human FcγRIIa type R, 5000 nM; in the assay with human FcγRIIa type H, 5000 nM; with human FcγRIIb [12], 6800 nM. Besides, in the assay with human FcγRIIb [13], the “KD(IIb) of parent polypeptide/KD(IIb) of altered polypeptide” value is 1. Besides, the “KD(IIaH)/KD(IIb)” value with human FcγRIIb [14] was determined as 0.7. The “KD(IIaR)/KD(IIb)” value with human FcγRIIb [15] was 0.7.

B6: IL6R-G1d_v3/IL6R-L (antibody, human IgG1)
heavy: not shown
light: DIQMTQSPSSLSASVGDRVTITCRASQDISSYLNWYQQKPGKAPKLLIYYTSRLHSGVPSRFSGSGSGTDFTFTISSLQPEDIATYYCQQGNTLPYTFGQGTKVEIK
notes: S267E/L328F (EU numbering) in IL6R-G1d; also called IgG1-v3; copies: 2 + 2
For the molecule B6, the “relative KD (KD of IgG1/KD of variant)” value in the assay with human FcγRIa [3] turned out to be 1.8 fold; with human FcγRIIa(R) [4], 522 fold; with human FcγRIIa(H) [5] it was 0.51 fold; in the assay with human FcγRIIb [6], 408 fold. Also, the Kd with human FcγRIa [7] turned out to be 0.19 nM; with human FcγRIIa(R) [8], 2.3 nM; with human FcγRIIa(H) [16], 1500 nM; in the assay with human FcγRIIb [9] it was 13 nM.

B7: GpH7-G1d/GpL16-k0 (antibody, human IgG1)
heavy: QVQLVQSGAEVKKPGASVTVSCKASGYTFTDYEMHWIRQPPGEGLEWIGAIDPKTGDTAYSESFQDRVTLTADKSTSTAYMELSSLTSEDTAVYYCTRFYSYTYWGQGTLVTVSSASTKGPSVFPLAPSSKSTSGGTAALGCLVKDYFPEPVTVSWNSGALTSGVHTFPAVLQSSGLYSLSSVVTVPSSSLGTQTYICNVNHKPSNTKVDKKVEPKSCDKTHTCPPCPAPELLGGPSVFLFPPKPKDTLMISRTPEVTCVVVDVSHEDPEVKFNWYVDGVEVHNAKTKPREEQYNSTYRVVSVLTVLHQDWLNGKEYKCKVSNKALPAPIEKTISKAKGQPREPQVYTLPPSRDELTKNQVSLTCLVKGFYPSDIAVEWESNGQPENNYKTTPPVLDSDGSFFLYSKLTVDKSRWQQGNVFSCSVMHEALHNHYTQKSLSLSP
light: DIVMTQSPLSLPVTPGEPASISCQASESLVHSNRNTYLHWYLQKPGQSPQLLIYKVSNRFSGVPDRFSGSGSGTDFTLKISRVEAEDVGVYYCSQNTHVPPTFGQGTKVEIE
notes: anti-glypican-3 antibody; G1d is IgG1 with Gly and Lys deleted from the C terminus; copies: 2 + 2
Take B7: the “relative binding activity (GpH7-G1d/GpL16-k0 = 100)” value with human FcγRIIb [17], with human FcγRIa [18], with human FcγRIIa(R) [19] and with human FcγRIIa(H) [20] was 100 throughout.

B8: GpH7-B3/GpL16-k0 (antibody, human IgG1)
heavy: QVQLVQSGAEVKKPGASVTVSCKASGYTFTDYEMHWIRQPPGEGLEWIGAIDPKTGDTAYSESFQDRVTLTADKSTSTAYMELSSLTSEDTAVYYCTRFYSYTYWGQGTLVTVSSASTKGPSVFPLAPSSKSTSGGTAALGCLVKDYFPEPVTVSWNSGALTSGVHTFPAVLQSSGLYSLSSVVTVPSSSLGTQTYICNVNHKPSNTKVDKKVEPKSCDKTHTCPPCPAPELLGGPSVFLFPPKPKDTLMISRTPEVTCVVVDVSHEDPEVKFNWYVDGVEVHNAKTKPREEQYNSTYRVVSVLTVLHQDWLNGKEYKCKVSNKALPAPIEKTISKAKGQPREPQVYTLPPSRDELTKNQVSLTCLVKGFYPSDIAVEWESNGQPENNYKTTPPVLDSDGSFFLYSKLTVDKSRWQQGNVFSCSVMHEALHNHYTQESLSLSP
light: DIVMTQSPLSLPVTPGEPASISCQASESLVHSNRNTYLHWYLQKPGQSPQLLIYKVSNRFSGVPDRFSGSGSGTDFTLKISRVEAEDVGVYYCSQNTHVPPTFGQGTKVEIE
notes: anti-glypican-3 antibody, constant region G1d with K439E; copies: 2 + 2
As for B8, the “relative binding activity (GpH7-G1d/GpL16-k0 = 100)” value in the assay with human FcγRIIb [17] is 88; with human FcγRIa [18], 109; in the assay with human FcγRIIa(R) [19] it was 94; in the assay with human FcγRIIa(H) [20], 92.

As a reminder, the Kd is the constant that tells how readily two partners part at equilibrium.

Source of the values: US20200199241A1 (Chugai, published 2020).
